In paper PMC9186069:

Tests used:
[1] = biological target: FbpA-C (Borrelia miyamotoi strain FR64b) (UniProt W5SFZ1); assay: SPR; FbpA-C, FbpB-C or FbpA DA-C immobilised by amine coupling; C1r-CCP2-SP injected, twofold dilution series 0-100 nM, multi-cycle; Biacore T200, 25°C, 30 μL/min; kinetic fits
[2] = biological target: MBP-FbpA-N (Borrelia miyamotoi strain FR64b); assay: SPR; MBP-Fbp-N fusion proteins immobilised by amine coupling on CMD200 chips; human plasma fibronectin injected, twofold dilution series up to 500 nM, multi-cycle; Biacore T200, 25°C, 30 μL/min, HBS-T; steady-state affinity fits
[3] = biological target: serum C1r (human (endogenous in normal human serum))

## C1r-CCP2-SP (domain or fragment)
[1]
  Kd: 0.9 nM
  koff: 0.00031 s⁻¹
  kon: 330000 M⁻¹ s⁻¹

## human fibronectin (from UniProt P02751) (natural protein)
[2]
  Kd: 170 nM

## FbpA-C (from UniProt W5SFZ1 222-371) (domain or fragment)
[3]
  IC50 of inhibition of classical pathway complement activation (ELISA-based assay, C4b deposition, normal human serum): 23 nM
  IC50 of inhibition of classical pathway hemolysis (pre-sensitized sheep erythrocytes, 2% normal human serum): 220 nM

## FbpB-C (from UniProt A0A0U2RP97 264-432) (domain or fragment)
[3]
  IC50 of inhibition of classical pathway complement activation (ELISA-based assay, C4b deposition, normal human serum): 1900 nM
